# Data as given in paper PMC2213614 (The Journal of Cell Biology, 2008).
# T1: GST-[change] (aa 1–320) (S. cerevisiae, UniProt P33332 1-320)
# T1 sequence: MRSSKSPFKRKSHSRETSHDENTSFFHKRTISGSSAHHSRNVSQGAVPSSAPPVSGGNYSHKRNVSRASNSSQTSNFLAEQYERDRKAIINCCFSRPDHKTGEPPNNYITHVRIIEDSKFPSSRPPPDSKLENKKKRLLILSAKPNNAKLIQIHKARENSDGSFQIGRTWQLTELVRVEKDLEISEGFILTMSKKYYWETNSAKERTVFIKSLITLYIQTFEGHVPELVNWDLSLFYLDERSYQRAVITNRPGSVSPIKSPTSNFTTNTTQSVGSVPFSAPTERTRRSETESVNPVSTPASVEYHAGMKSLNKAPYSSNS
# B1: Hisx6-Cdc42 (natural protein)
# chain: not shown
# Target: T1, GST-[change] (aa 1–320)
# Test: pull-down
binder,measurement,value
B1,binding result,binds
